Assay results taken from patent publication US20130231277A1 (NEW YORK UNIVERSITY, published 2013).

Target: T1, ectodomain of murine αKlotho (A35 to K982 of SEQ ID NO: 231) with a C-terminal FLAG tag (murine, UniProt O35082 35-982)
T1 construct: Purified from culture media of a HEK293 cell line; also called αKlotho ectodomain; not shown: C-terminal FLAG tag
T1 sequence: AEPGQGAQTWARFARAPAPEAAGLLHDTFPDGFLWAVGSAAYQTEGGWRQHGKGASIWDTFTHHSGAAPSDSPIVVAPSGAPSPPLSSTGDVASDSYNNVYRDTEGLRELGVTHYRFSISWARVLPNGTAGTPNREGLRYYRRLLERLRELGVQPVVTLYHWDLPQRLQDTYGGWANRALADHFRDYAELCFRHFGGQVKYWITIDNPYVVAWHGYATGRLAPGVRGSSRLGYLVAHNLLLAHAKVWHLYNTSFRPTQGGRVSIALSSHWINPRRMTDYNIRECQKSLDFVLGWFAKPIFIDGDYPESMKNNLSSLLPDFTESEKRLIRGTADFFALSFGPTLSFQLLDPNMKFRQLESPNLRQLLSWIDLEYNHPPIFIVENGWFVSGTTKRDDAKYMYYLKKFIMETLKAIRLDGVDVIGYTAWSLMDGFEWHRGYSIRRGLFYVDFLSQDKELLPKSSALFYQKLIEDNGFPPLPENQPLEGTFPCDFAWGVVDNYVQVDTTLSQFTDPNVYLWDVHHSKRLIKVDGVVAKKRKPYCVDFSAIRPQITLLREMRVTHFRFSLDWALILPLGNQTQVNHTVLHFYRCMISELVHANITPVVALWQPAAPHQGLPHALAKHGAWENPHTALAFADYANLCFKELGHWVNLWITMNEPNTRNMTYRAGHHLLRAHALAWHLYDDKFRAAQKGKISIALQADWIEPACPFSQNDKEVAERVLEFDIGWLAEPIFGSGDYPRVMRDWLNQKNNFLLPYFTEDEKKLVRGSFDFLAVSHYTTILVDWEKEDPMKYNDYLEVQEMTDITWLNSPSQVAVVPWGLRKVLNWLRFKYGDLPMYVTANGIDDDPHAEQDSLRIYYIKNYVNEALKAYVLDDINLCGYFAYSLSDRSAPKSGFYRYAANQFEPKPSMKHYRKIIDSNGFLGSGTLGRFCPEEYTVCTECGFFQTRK
Assay: SPR; FGF21 immobilized, increasing concentrations of αKlotho ectodomain passed over the chip (FIG. 4E)
Experimental: SPR experiments were performed on a Biacore 2000 instrument (Biacore AB), and all the protein-protein and protein-peptide interactions were studied at 25° C. in HBS-EP buffer (10 mM HEPES-NaOH, pH 7.4, 150 mM NaCl, 3 mM EDTA, 0.005% (v/v) polysorbate 20). Proteins were immobilized by amine coupling on flow channels of research grade CM5 chips (Biacore AB). Proteins were injected over a CM5 chip at a flow rate of 50 μl min⁻¹, and at the end of each protein injection (180 s), HBS-EP buffer (50 μl min⁻¹) was flowed over the chip to monitor dissociation for 180 s. In experiments where βKlotho binding to FGFR was analyzed, the chip surface was then regenerated by injecting 50 μl of 2.0 M NaCl in 10 mM sodium/potassium phosphate, pH 6.5. In experiments where α/βKlotho binding to FGF19/21/23 or binding of the FGFR1c-βKlotho complex to FGF21 was studied, 2.0 M NaCl in 10 mM sodium acetate, pH 4.5 was used for chip regeneration. To control for nonspecific binding in experiments where the ectodomain of αKlotho or βKlotho was immobilized on the chip, β-glucuronidase was coupled to the control flow channel of the chip (˜43-68 fmol/mm²). […] For each protein injection over a chip onto which αKlotho or βKlotho had been immobilized, the nonspecific responses from the β-glucuronidase control flow channel were subtracted from the responses recorded for the α/βKlotho flow channel.

binding result: no binding
B1: human FGF21, secreted bioactive form (H29 to S209 of SEQ ID NO: 100) (ligand)
chain: HPIPDSSPLLQFGGQVRQRYLYTDDAQQTEAHLEIREDGTVGGAADQSPESLLQLKALKPGVIQILGVKTSRFLCQRPDGALYGSLHFDPEACSFRELLLEDGYNVYQSEAHGLPLHLPGNKSPHRDPAPRGPARFLPLPGLPPALPEPPGILAPQPPDVGSSDPLSMVGPSQGRSPSYAS
notes: Used both immobilized on the SPR chip and in solution; also called wild-type FGF21; native FGF21
